The nanobody polyreactivity screen of Harvey et al. (2022)

assay: yeast display, Sf9 membrane polyspecificity reagent, FACS + sequencing; frameworks hold sequencing errors
Procedure, shortened: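 Genes from sorted yeast were amplified by colony PCR, read by MiSeq 2 × 250 sequencing and filtered on CDR length. These cells carried a synthetic nanobody library in Saccharomyces cerevisiae BJ5465 and were sorted by FACS into low and high (top ~1%) gates on anti-HA and streptavidin fluorescence. Polyreactivity is labelled according to the gate of origin.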

| Sequence | polyreactivity (PSR sort gate) |
| --- | --- |
| QVQLQECGGGLEQAGGSLRLSCAASGTFSNSVKWLYCQARGKEREFVATIGVGGSTNYADSVKGRFTISRDNAKNTVYLQMNSLKPEDTAVYHCAAYGAASNFHYYRGQGTQVTVSS | low polyreactivity |
| QVQLVESGGGLVQAGGSLRLSCAASGFTFSRNGMGWYRLAPGKERELVADITLSGASTYYADSVKGRFTISRDNAKNTVYLQMKSLKPEDTAVYYCAADPYHWRWGWRHDYWGQGTQVTVSS | low polyreactivity |
| QVQLVESGGGLVQAGGSLRLSCAASGSTFDINAMGWYRQAPGKERELVAAISWGGGSTYYADSVKGRFTISRDNAKNTVYLQMNSLKPEDTAVYYCAKLKGTQPNRYDYWGQGTQVTVSS | low polyreactivity |
| QVQLVESGGGLVQAGGSLRLSCAASGRTFYYNAMGWYRQAPGKERQLVAAITSSGSTYYADSVKGRFTISRDNAKNTVYLQMNSLKPEDTAVYYCASVTSYSHYRLSGWYRFEYWGQGTQVTVSS | high polyreactivity |
| PVQLVESGGGLVQAGGSLRLSCAASGSIFPSYAMGWYRQAPGKERELVATIGRGGTTNYADSVKGRFTISRDNAKNTVYLQKNSLKPEDTGVYYCNAERIWRYKYGYDYWGQGTQVTVSS | high polyreactivity |
| QVQLVESGGGLVQAGGSLRLSCAASGFTFSSYDMGWYRQAPGKERELVAAISRSGGSTYYADSVKGRFTISRDNAKNTVYLQMNCLKPEDTAVYYARAKYSRVTLYQGYGYWGQGTQVTVSS | high polyreactivity |
| QVQLVESGGGFVQAGGSLRLSCAASGIIFDYNAMGWYRQAHGKERELVAAISGRSGRTYYADSVKGRFTISRDNAKNTVYLQMNSLKPEDTAVYYCAARWYAGGNYWGQGTQVTVSS | high polyreactivity |
| QVQLVESGGGLVQAGGSLRLSCAASGGIFYLYVMGWYRQAPGKERELVAAITSRGGRTYYADSVKGRFTISRDNAKNTVYLQMNSLKPEDTAVYYCNASQSDIFDYDYWGQGTQVTVSS | low polyreactivity |
| QVQLVESGGGLVQAGGSLRLSCAASGRTFWVYAMGWYRQATGKERELVATISKSAGITSYADSVKGRFTFSRDNAKNTVYLQMNSLKPEDTAVFYCAADKSYRRVYYWGQGTQVTVSS | low polyreactivity |
| QVQLVESGGGLVQAGGSLRLSCAASGFIFRWYAMGWYRQAPGKERELVASITRGGSTNYADSVKGRFTISRDNAKNTVYLQMNSLKPEDTAVYYCAAGWRRAAGIQYWYGYWGQGTQVTVSS | high polyreactivity |
| QVQHVESGGGIVQAGGSLRLSCAASGGIFGYYAMGWYRQAPGKEREFVATITRGGGSTYYADSVKGRFTISRDNAKNTVYLQMNSLKPEDSAVYYCNAKPSYYQRYIYWGQGTQVTVSS | high polyreactivity |
| QVQLVESGGGLVQAGGSLRLSCAASGLTFGRYAMGWYRQAPGKERELVAAITASGGITYYADSVKGRFTISRDNAKNTVYLQMNSLKPEDTAVYYCAADGEVKYDYWGQGTQVTVSS | low polyreactivity |
| QVQLVESVGGLVQAGGSLLLSCAASGGIFWVYALGWYRQAPGKVRELVAAISYDTTSTYYADSVKGRFTISRDNAKNTVYLQMNRLKPEDTAVYYCNKTTLLTVEYDYGGQGTQVTVSS | low polyreactivity |
| QDQLVESGGGLVQAGGSLRLSCAASGIILGGYVMGWYRQAPGKERELVAALSYSGGRTDYADSVKGRFTISRDKAKNTVYLQMNILNPEDTAVYYCATEYWRYHGITKGYTRYDYWGQGTQVTVSS | high polyreactivity |
| QVQLVESGGGLDQAGGRLRLSCAASGITFGRNTMGWYRQSPGKERELVAAIDSGGNTYADSVKGRFTISRDNAKNTVYLQMNSLKPEDTAVYYCAVDGGEFSSYGYWGQGTQVTVSS | low polyreactivity |
| QVQLVESGGGLVQAGGSLRLSCAASGSIFRVYAMGWYRQAPGKEREFLAAITTRGGSTYYADSVKGRFTISRDNAKNTVYLQMNSLKPEDTAVYYCAARGWVSAYYGYDYWGQGTQVTVSS | high polyreactivity |
| QVQLVESGGGLVQAGGSLRVSCAASGRIFTIYAMGWYRQAPGTEREVVAAISDRGTRTYYADSVKGRFTISRDNAKNTVYVQMNSLKPEDTALYYCATDALYTYGYDYWGQGSQVTVSS | low polyreactivity |
| QVQLVESGGGLVQAGGSHRLSCAAYGSIFATNAMGWYRQAPGKERELVASISYSVSRTYYADSVKGRFTISRDNSMNTVYLQMNSMKPEDTAFYYSAVRQVNWFGIGYEDDYWGQGTQVTVSS | low polyreactivity |
| QVQLVESRGRLVQAGGSLRLSCAASGYTFNHNAMGWYRPAPGKETELVAVITPRAGSTYYADSVKGRFTISRDNAKNTVYLQKNSLKPEDSAVYYCNADGFVRRTLRYDYWVQGTQVTVSS | high polyreactivity |
| QVQLVESGGGLVQAGGSLRLSCAASGRIFDPYAMGWYRQAPGKERELVASISWSGGRTYYADSVKGRFTISRDNAKNTVYLQMNSLKPEDTAVYYCARDYGQYGWYRYGRTYDHWGQGTQVTVSS | high polyreactivity |
| QVQLVESGGGLVQAGGSLRLSCAASGRTFSRYAMGWYRQAPGKERELVAAITRSGGSTYYADSVKGRFTISRDNAKNTVYLQMNSLKPEDTAVYYCATERNLRNYDYWGQGTQVTVSS | high polyreactivity |
| QVQLVESGGGLVQAGGSLRLSCAASGRIFYAYAMGWYRQAPGKERELVATITYGGGSTYYADSVKGRFTISRDNAKNTVDLQMNSLKPEATAVYYCAADRTGSTLYTIRYYYWGQGTQVTVSS | low polyreactivity |

| Sequence | polyreactivity (PSR sort gate) |
| --- | --- |
| QVQLVESGGGLVQAGGSLRLTCAASGSIFYRYVMGWYRQAPGKEMELVAVISGSGGNTYYADSVKGRFTISRDNAKNTVYLQRNSLTPDDTAVYYCAASWYFLPTQTRPYYGYYYWGQATQVTVSS | high polyreactivity |
| QVQLVESGGGLDQPGGSLRLTWAASGSTFYLYTMGWYRQAHGKERELVARISSSGSTNYADSVKGRFTISRDNAKNAVYLQMNSLKPEDTAVYYCNKDWIYRGYDYWGQATQVTVSS | high polyreactivity |
| QVQLVESGGGIVQAGGSLRLICAASGSNFNRYAMGWYRQAPGKERQLVARITNRSGNTYYADSVKGRFTISRDIAKNTVYLQMTSLKPEDTAVYYCAATKSLGRYIMEYWGLGTQVTVSS | low polyreactivity |
| QVQLVESGGGLVHAGGSLRLSCAASGSTFGINAMGWYRQAPGKERELVAAITRGGSTKYADSVKGRFTISRDNAKKTVYLQMNSLKPEDTAVYYCNKRPWHRSSRPFYYWGQGTQVTVSS | high polyreactivity |
| QVQLVESGGGLVQAGGSLRLSCAASGNTFTFYAMGWYRQAPGKERELVASITGRGGSTYYADSVKGRFTISRDNAKNTVYLQMNSLKPEDTAVYYCNADYNSYRYRPPTTRDYWGQGTQVTVSS | low polyreactivity |
| QVQLVESGGGLVQAGGSLRLSCAASGRISFINAMGWYRQAPGKEREFVAGITTDGGSTYYADSVKGRFTISRDNAKNTVYLQMNSLKPEDTAVYYCAAEGSVWYVYWGDIYDYWGQGTQVTVSS | low polyreactivity |
| QVQLVESGGGLVHSGRSLRLSCAASGSISCHYAMGWYRTAHGKERDLLAAIDSSGGIKYYADSVKGRFTISRDNSKNTVYLQMNSLKPEDTAVYYCAAVFLLFGFEWSYDYWGQGTQVTVSS | low polyreactivity |
| QDQLVESGGGLVQAGGSLRLSCAASGFTFDENAMGWYRQAPGINYSGASTYYADSVKGRFTISRDNAKNTVYLQMNSLKPEDTAVYYCAAEVVAQMNYWGQGTQVTVSS | low polyreactivity |
| QVQLVESGGGLVQAGGSLRLSCAASGSTFGYYTMGWYRQAPGKERELVAAISWGGGSTYYADSVKGRFTISRDNAKNTVYFQMNSLIPEDTAVYYCARTPVTSYKDDFYYWGQGTQVTVSS | low polyreactivity |
| QVQLVESGGGLVQAGGSLRLSCAASGSIFRSYAMGWYRQAPGKERELVAAIRSDGRTNYADSVKGRFTISRDNAKNTVYFQMNSLKPEDTAVYYCDANAYYSYWRSMDYWGQGTQVTVSS | low polyreactivity |
| QVQLVESGGGLVQAGGSLRLSCAASGFTFSYYAMGWYRQAPGKERELVAGITTGGGTNYADSVKGRFTISRDNAKNTVYLQMNSLKPEDTAVFYCNADYWYKYDYWGQGTQVTVSS | low polyreactivity |
| QVQLVESGGGLVQAGGSLRLSCAASGIILYVNAMGWYRQAPGKEREFVAAISWGGGSTYYADSVKGRFTISRDNAKNTVYLQMNSLKPEDTAVYYCAAEFWSGYPTYTYDYWGQGTQVTVSS | low polyreactivity |
| QVQLVESGGGLVQAGGSLRLSCAASGGTFGYYAMGWYIQAPGTERELVAAISWSGGSTYYADSVKGRFTISRDNAKNTVYLQMNSLKAEDTAVYYCNAVTRFGYVKFDYWGQGTQVTVSS | high polyreactivity |
| QVQLVESGGGLVQAGGSLRLSCAASGLTFWGYAMGWYRQAPGKEREFVASISSGGGSTYYADSVKGRFTISRDNAKNTVYLQMNSLKPEDTAVYYCNADRTQDRNPYTYATFDYWGQGTQVTVSS | low polyreactivity |
| QVQHVESGGGLVQAGGSLRLSCAASRFIFVTYAMGCYIQAPGKERELVAAITNSGGTTYYADSVKGRFTISRDNAKNTVYLQMNSLKPEDTAVYYCNKPYGAETAHREFDYWGQGTQVTVSS | low polyreactivity |
| QVQLVESGGGLVQAGGSLRLSCAASGSTFGPYVMGWYRQAPGKERELVAAISRIGGRTYYADSVKGRFTISRDNAKNTVYLQMNSLKPEDTAVYYCAAKVGLYGDDYWGQGTQVTVSS | high polyreactivity |
| QVQLVESGGGLVQAGGSLRLSCAASGRIFVSYTMGWYRQAPGKERELVAAISTDATTNYADSVKGRFTISRDNAKNTVYLQMNSLKPEDTAVYYCAADPFEYSYYTLYTSNPFYYWGQGTQVTVSS | low polyreactivity |
| QVQLVESGGGLVQAGGSLRLSCAASGRIFYHYAMGWYRQAPGKERELVAVIRSTGSTNYADSVKGRFTISRDNAKNTVYFQLKSLIPEDTAVYYCAVRRATFSYWYFNGGYWGQGTQVTVSS | high polyreactivity |
| QVQLVESGGGLVQAGGSLRLSCAASGSTLAFYAMGWYRQATGKQRELVAAISRSGGRTYYSDSVKGRFTISRDNAKNTVYLQMNSLKPEDTAVYYCAAYWYYYWWYDYWGQGTQVTVSS | high polyreactivity |
| QVQLVESGGGLVQAGGSLRLSCAASGSTYYYAMGWSRQAPGKERELVAAISSSSGSTYYADSVKGRFTISRDNAKNTVYLQMNSLKPEDTAVYYCAAEGYKGWVYEYDYWGQGTQVTVSS | low polyreactivity |
| QVQLVESGGGLVQAGGSLRLSCAASGFIIPDYAMGWYRQAPVKERELVAAITSSGGRTYYADSVKVRFTISRDNAKNTVYLQMNSLIPEDTAVYYCAARTNSPRGYGSDYWGQGTQVTVSS | high polyreactivity |
